Results on two substances are retold here after patent US7052692.

Data set [1] deals with D-sequence-binding protein (D-BP), dephosphorylated form.
Data set [2] deals with D-sequence-binding protein (D-BP) (human). Kind of data set: cell-based or functional assay.

Turning to purified EGF-R PTK (CalBiochem), the “in vitro phosphorylation assay followed by EMSA with the D(-) probe” value in data set [1] is reported as “incubation of the ssD-BP with the purified EGF-R PTK resulted in phosphorylation of this protein whereas incubation in the presence of ATP alone had no effect”.
As to “human epidermal growth factor receptor (EGF-R) (from UniProt P00533 25-1210)”, in data set [2], the Ratio of dephosphorylated/phosphorylated ssD-BP, EGF-R-transfected 293 clone 293-4 is 0.31; the Ratio of dephosphorylated/phosphorylated ssD-BP, EGF-R-transfected 293 clone 293-5 is 0.45; the Ratio of dephosphorylated/phosphorylated ssD-BP, EGF-R-transfected 293 clone 293-6 came to 0.36; the Ratio of dephosphorylated/phosphorylated ssD-BP, EGF-R-transfected 293 clone 293-8 stood at 0.51. For the same substance, in data set [2], the Ratio of dephosphorylated/phosphorylated ssD-BP, EGF-R-transfected 293 clone 293-12 came to 0.64; the Ratio of dephosphorylated/phosphorylated ssD-BP, control untransfected 293 cells was 3.5; the Ratio of dephosphorylated/phosphorylated ssD-BPs, average of the EGF-R-transfected 293 cell clones was 0.45.
